For data set [1], the system named is HeLa Kyoto. Kind of data set: melting temperature (median over replicates), in situ; higher = more thermally stable.
The test system of data set [2] is HeLa Kyoto. Kind of data set: solubility in G1/S (NP-40 vs SDS abundance) (log2 ratio); higher = more soluble. The settings on record: cell cycle stage: G1/S.
For data set [3], the system named is HeLa Kyoto. Kind of data set: thermal stability score vs G1/S (z-score of summed log2 fold changes over temperatures); higher = more thermally stable than in G1/S.
Data set [4] has as its system HeLa Kyoto. Kind of data set: solubility change mitosis vs G1/S (difference of NP-40 vs SDS log2 ratios) (log2 ratio difference); higher = more soluble in mitosis.
Where [5] appears, read: cell cycle stage: early G1 (4.5 h after nocodazole release).

The record followed here is the supplement of paper PMC5998384.
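Wherever melting temperature (median over replicates), in situ is given: HeLa Kyoto cells synchronized by double thymidine or nocodazole block, proteins quantified by TMT10plex mass spectrometry, three independent biological replicates.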
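Wherever solubility change mitosis vs G1/S (difference of NP-40 vs SDS log2 ratios) is given: synchronized HeLa Kyoto cells (double thymidine block for G1/S, nocodazole release for mitosis), protein amounts in NP-40 versus SDS lysates quantified by mass spectrometry, three biological replicates.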
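Wherever solubility in G1/S (NP-40 vs SDS abundance) is given: HeLa Kyoto cells arrested at G1/S by double thymidine block, proteins quantified by TMT10plex mass spectrometry in mild NP-40 versus SDS extracts, three biological replicates.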
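Wherever thermal stability score vs G1/S (z-score of summed log2 fold changes over temperatures) is given: synchronized HeLa Kyoto cells, proteins quantified by TMT10plex mass spectrometry, three biological replicates, mitosis taken 0.5 h after nocodazole release, G1/S directly after double thymidine block.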

In the case of “MAAVLNAERLEVSVDGLTLSPDPEERPGAEGAPLLPPPLPPPSPPGSGRGPGASGEQPEPGEAAAGGAAEEARRLEQRWGFGLEELYGLALRFFKEKDGKAFHPTYEEKLKLVALHKQVLMGPYNPDTCPEVGFFDVLGNDRRREWAALGNMSKEDAMVEFVKLLNRCCHLFSTYVASHKIEKEEQEKKRKEEEERRRREEEERERLQKEEEKRRREEEERLRREEEERRRIEEERLRLEQQKQQIMAALNSQTAVQFQQYAAQQYPGNYEQQQILIRQLQEQHYQQYMQQLYQVQLAQQQAALQKQQEVVVAGSSLPTSSKVNATVPSNMMSVNGQAKTHTDSSEKELEPEAAEEALENGPKESLPVIAAPSMWTRPQIKDFKEKIQQDADSVITVGRGEVVTVRVPTHEEGSYLFWEFATDNYDIGFGVYFEWTDSPNTAVSVHVSESSDDDEEEEENIGCEEKAKKNANKPLLDEIVPVYRRDCHEEVYAGSHQYPGRGVYLLKFDNSYSLWRSKSVYYRVYYTR [ACBD3]”, the melting temperature in the data set on HeLa Kyoto [1] (cell cycle stage: G1/S) is 50.4 °C; in the data set with HeLa Kyoto [1] (cell cycle stage: mitosis) it was 50.2 °C. Further, in the data set on HeLa Kyoto [2], the “solubility in G1/S (log2)” value is -0.138. The thermal stability score in the data set with HeLa Kyoto [3] (setting [5]) was -1.26; in the data set with HeLa Kyoto [3] (cell cycle stage: mitosis), -0.756. Besides, in the data set with HeLa Kyoto [4], the “solubility change mitosis (log2)” value is -0.137.

For the sequence “MAAVPELLQQQEEDRSKLRSVSVDLNVDPSLQIDIPDALSERDKVKFTVHTKTTLPTFQSPEFSVTRQHEDFVWLHDTLIETTDYAGLIIPPAPTKPDFDGPREKMQKLGEGEGSMTKEEFAKMKQELEAEYLAVFKKTVSSHEVFLQRLSSHPVLSKDRNFHVFLEYDQDLSVRRKNTKEMFGGFFKSVVKSADEVLFTGVKEVDDFFEQEKNFLINYYNRIKDSCVKADKMTRSHKNVADDYIHTAACLHSLALEEPTVIKKYLLKVAELFEKLRKVEGRVSSDEDLKLTELLRYYMLNIEAAKDLLYRRTKALIDYENSNKALDKARLKSKDVKLAEAHQQECCQKFEQLSESAKEELINFKRKRVAAFRKNLIEMSELEIKHARNNVSLLQSCIDLFKNN [SNX5]”, the melting temperature with HeLa Kyoto [1] (cell cycle stage: G1/S) worked out at 52.3 °C; with HeLa Kyoto [1] (cell cycle stage: mitosis), 50.9 °C. Moreover, the “solubility in G1/S (log2)” value in the data set on HeLa Kyoto [2] came out at 0.468. In addition, the results for the thermal stability score in the data set with HeLa Kyoto [3] (setting [5]) and in the data set with HeLa Kyoto [3] (cell cycle stage: mitosis) were 0.949 and -0.872, respectively. In the data set with HeLa Kyoto [4], the “solubility change mitosis (log2)” value was -0.0436.

Take “MAAVSLRLGDLVWGKLGRYPPWPGKIVNPPKDLKKPRGKKCFFVKFFGTEDHAWIKVEQLKPYHAHKEEMIKINKGKRFQQAVDAVEEFLRRAKGKDQTSSHNSSDDKNRRNSSEERSRPNSGDEKRKLSLSEGKVKKNMGEGKKRVSSGSSERGSKSPLKRAQEQSPRKRGRPPKDEKDLTIPESSTVKGMMAGPMAAFKWQPTASEPVKDADPHFHHFLLSQTEKPAVCYQAITKKLKICEEETGSTSIQAADSTAVNGSITPTDKKIGFLGLGLMGSGIVSNLLKMGHTVTVWNRTAEKCDLFIQEGARLGRTPAEVVSTCDITFACVSDPKAAKDLVLGPSGVLQGIRPGKCYVDMSTVDADTVTELAQVIVSRGGRFLEAPVSGNQQLSNDGMLVILAAGDRGLYEDCSSCFQAMGKTSFFLGEVGNAAKMMLIVNMVQGSFMATIAEGLTLAQVTGQSQQTLLDILNQGQLASIFLDQKCQNILQGNFKPDFYLKYIQKDLRLAIALGDAVNHPTPMAAAANEVYKRAKALDQSDNDMSAVYRAYIH [GLYR1]”: the melting temperature in the data set on HeLa Kyoto [1] (cell cycle stage: G1/S) amounted to 53.3 °C; in the data set on HeLa Kyoto [1] (cell cycle stage: mitosis), 52.4 °C. Also, the “solubility in G1/S (log2)” value in the data set on HeLa Kyoto [2] is -1.74. Moreover, the thermal stability score is 1.22 with HeLa Kyoto [3] (setting [5]) and -1.43 in the data set with HeLa Kyoto [3] (cell cycle stage: mitosis). Also, in the data set with HeLa Kyoto [4], the “solubility change mitosis (log2)” value was determined as 1.01.

In the case of “MAAVVAATRWWQLLLVLSAAGMGASGAPQPPNILLLLMDDMGWGDLGVYGEPSRETPNLDRMAAEGLLFPNFYSANPLCSPSRAALLTGRLPIRNGFYTTNAHARNAYTPQEIVGGIPDSEQLLPELLKKAGYVSKIVGKWHLGHRPQFHPLKHGFDEWFGSPNCHFGPYDNKARPNIPVYRDWEMVGRYYEEFPINLKTGEANLTQIYLQEALDFIKRQARHHPFFLYWAVDATHAPVYASKPFLGTSQRGRYGDAVREIDDSIGKILELLQDLHVADNTFVFFTSDNGAALISAPEQGGSNGPFLCGKQTTFEGGMREPALAWWPGHVTAGQVSHQLGSIMDLFTTSLALAGLTPPSDRAIDGLNLLPTLLQGRLMDRPIFYYRGDTLMAATLGQHKAHFWTWTNSWENFRQGIDFCPGQNVSGVTTHNLEDHTKLPLIFHLGRDPGERFPLSFASAEYQEALSRITSVVQQHQEALVPAQPQLNVCNWAVMNWAPPGCEKLGKCLTPPESIPKKCLWSH [GALNS]”, the melting temperature with HeLa Kyoto [1] (cell cycle stage: G1/S) amounted to 55.5 °C; with HeLa Kyoto [1] (cell cycle stage: mitosis) it was 57.8 °C. In the data set with HeLa Kyoto [2], the “solubility in G1/S (log2)” value turned out to be 0.789. For the same sequence, the thermal stability score in the data set on HeLa Kyoto [3] (setting [5]) is -4.28; in the data set with HeLa Kyoto [3] (cell cycle stage: mitosis), -1.14. Moreover, the “solubility change mitosis (log2)” value in the data set on HeLa Kyoto [4] was -0.0581.

Regarding “MAAVVVAAAGGAGPAVLQVAGLYRGLCAVRSRALGLGLVSPAQLRVFPVRPGSGRPEGGADSSGVGAEAELQANPFYDRYRDKIQLLRRSDPAAFESRLEKRSEFRKQPVGHSRQGDFIKCVEQKTDALGKQSVNRGFTKDKTLSSIFNIEMVKEKTAEEIKQIWQQYFAAKDTVYAVIPAEKFDLIWNRAQSCPTFLCALPRREGYEFFVGQWTGTELHFTALINIQTRGEAAASQLILYHYPELKEEKGIVLMTAEMDSTFLNVAEAQCIANQVQLFYATDRKETYGLVETFNLRPNEFKYMSVIAELEQSGLGAELKCAQNQNKT [ATPAF1]”, the results for the melting temperature with HeLa Kyoto [1] (cell cycle stage: G1/S) and with HeLa Kyoto [1] (cell cycle stage: mitosis) were 51.4 °C and 51.5 °C, respectively. Besides, the “solubility in G1/S (log2)” value in the data set on HeLa Kyoto [2] came to 0.199. The thermal stability score in the data set on HeLa Kyoto [3] (setting [5]) worked out at 1.88; in the data set on HeLa Kyoto [3] (cell cycle stage: mitosis) it was 1.83. Moreover, the “solubility change mitosis (log2)” value with HeLa Kyoto [4] is -0.00439.

On to “MAAWGRRRLGPGSSGGSARERVSLSATDCYIVHEIYNGENAQDQFEYELEQALEAQYKYIVIEPTRIGDETARWITVGNCLHKTAVLAGTACLFTPLALPLDYSHYISLPAGVLSLACCTLYGISWQFDPCCKYQVEYDAYKLSRLPLHTLTSSTPVVLVRKDDLHRKRLHNTIALAALVYCVKKIYELYAV [TMEM11]”, for which the melting temperature in the data set on HeLa Kyoto [1] (cell cycle stage: G1/S) was 52.2 °C; in the data set on HeLa Kyoto [1] (cell cycle stage: mitosis), 51.4 °C. Besides, the “solubility in G1/S (log2)” value in the data set on HeLa Kyoto [2] is -0.0105. Also, the thermal stability score was -0.391 in the data set with HeLa Kyoto [3] (setting [5]) and -1.34 in the data set on HeLa Kyoto [3] (cell cycle stage: mitosis). The “solubility change mitosis (log2)” value with HeLa Kyoto [4] was -0.0939.
